Blank lines part the entries; values can stand above or below the molecule they belong to. Where a SMILES comes first, the peptide text is derived from it. The star is where a group is joined. Cbz = O=C(OCc1ccccc1)*; CH2F = FC*
Experiments:
LA4 monolayer = settings: LA4 cells; cited from earlier work
HPAEpiC = settings: cited from earlier work
biotinylated WT-sFasL = molecular target: T1, biotinylated WT-sFasL (human, UniProt P48023 103-281, biotinylated with EZ-Link Sulfo-NHS-LC-Biotin (sites not given)); experiment: mixture captured on streptavidin-coated wells, detected with HRP anti-FLAG antibody
T1 construct: range 103-281; Same protein as WT-sFasL, chemically biotinylated; also called biotinylated wild type sFasL
T1 sequence (looked up): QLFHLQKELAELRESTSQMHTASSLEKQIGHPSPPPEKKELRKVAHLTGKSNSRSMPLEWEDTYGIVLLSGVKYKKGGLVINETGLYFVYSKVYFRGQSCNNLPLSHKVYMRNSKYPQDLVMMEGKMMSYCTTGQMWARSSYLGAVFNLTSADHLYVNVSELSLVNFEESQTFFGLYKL
Description: (§1) Serial 3-fold dilutions of FLAG tagged mut-sFasL were mixed with biotinylated WT sFasL (60 ng). The mixtures were incubated at room temperature for 15 minutes and applied to streptavidin-coated wells. FLAG tags were detected with HRP anti-FLAG mAb. There was a dose-dependent increase in FLAG signal in wells incubated with the biotinylated WT sFasL+ and the mut-sFasL-FLAG mixture, showing the formation of complexes of WT and mut-sFasL. […] Data shown as ratio of the absorbance at 450 nm of each experimental condition to that of media only. Data were generated from three separate experiments, each done in duplicate, and were analyzed by 2-way ANOVA with Dunnet's post hoc analysis; comparisons were made to 0 ng/mL for each condition. Each dot represents individual data, lines represent means±SD. *=P<0.05; **=P<0.01, ***P<0.001.
The mut-sFasL forms complexes with WT sFasL. In order to be active, sFasL must form trimers or higher order multimers. Therefore, it was tested whether the mut-sFasL forms complexes with WT-sFasL. The mixture was incubated in streptavidin-coated well to capture the biotinylated WT-sFasL. After washing unbound material, FLAG was detected using an anti-FLAG antibody, which would detect FLAG-tagged mut-sFasL complexed with biotinylated WT-sFasL. […]

biotinylated WT sFasL [1] = molecular target: T2, biotinylated WT sFasL (Homo sapiens, UniProt P48023); experiment: Complex formation of FLAG tagged mut-sFasL with biotinylated WT sFasL on streptavidin-coated wells; format: binding; settings: fixed biotinylated WT sFasL (60 ng), increasing FLAG-tagged mut-sFasL
T2 construct: biotin (chemical label, EZ-Link Sulfo-NHS-LC-Biotin); made in house; host or cells: FreeStyle 293-F cells
T2 sequence (P48023 103-281): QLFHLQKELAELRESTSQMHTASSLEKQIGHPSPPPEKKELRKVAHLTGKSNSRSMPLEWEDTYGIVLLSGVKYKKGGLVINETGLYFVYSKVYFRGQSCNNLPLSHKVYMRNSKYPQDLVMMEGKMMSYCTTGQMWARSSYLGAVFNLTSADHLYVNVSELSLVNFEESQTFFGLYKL
Description: as §1, with “mAb.” for “mAb. There was a dose-dependent increase in FLAG signal in wells incubated with the biotinylated WT sFasL+ and the mut-sFasL-FLAG mixture, showing the formation of complexes of WT and mut-sFasL.”
(§2) Antibodies and Reagents. To prepare immunoaffinity columns, mouse monoclonal anti-human FasL antibodies, clone 100419 (R&D System, Cat #MAB126, RRID:AB 2246667, Minneapolis, Minn.), were used. For the Fas-FasL binding assay, recombinant human soluble Fas receptors (PeproTech, Rocky Hill, N.J.) and biotinylated goat anti-human FasL antibodies (PeproTech Cat #500-P184bt-50 ug, RRID:AB 148184) were used. Mouse anti-human Fas (CD95) monoclonal IgM antibody, clone CH-11 and its isotype control antibody, clone 3D12, were obtained from MBL, Nagoya, Japan (MBL International Cat #SY-001, RRID:AB 591016 and Cat #M077-3, RRID:AB 593057, respectively). FLAG tagged mut-sFasL was detected using HRP anti-FLAG monoclonal antibody (Sigma-Aldrich, Cat #A85920). Unless otherwise indicated, the other chemicals were purchased from Sigma-Aldrich (St. Louis, Mo.).
(§3) Biotinylation of sFasL. Immunoaffinity purified WT-sFasL was biotinylated with No-Weight Format EZ-Link Sulfo-NHS-LC-Biotin (Pierce, Rockford, Ill., Cat #21327) following the manufacturer's instructions. To capture biotinylated WT-sFasL in the mixtures of biotinylated WT-sFasL and mut-sFasL-FLAG, Streptavidin-variant (Strep-Tactin XT) coated 96-well plates (iba, Gottingen, Germany, Cat #2-4101-001) were used.
(§4) The mut-sFasL forms complexes with WT sFasL. […] After washing unbound material, FLAG was detected using an anti-FLAG antibody, which would detect FLAG-tagged mut-sFasL complexed with biotinylated WT-sFasL.

biotinylated WT sFasL [2] = experiment: as above; format: binding, human; settings: FLAG-tagged mut-sFasL by itself
Description: as §1, with “mAb.” for “mAb. There was a dose-dependent increase in FLAG signal in wells incubated with the biotinylated WT sFasL+ and the mut-sFasL-FLAG mixture, showing the formation of complexes of WT and mut-sFasL.”
as §2, §3, §4

recombinant human Fas = molecular target: T3, recombinant human Fas (Homo sapiens, UniProt P25445); experiment: Competition assay: binding of biotinylated WT sFasL to plate-coated recombinant human Fas; settings: biotinylated WT-sFasL 70 ng/mL, Fas coated at 250 ng/mL, serial 3-fold dilutions
T3 construct: recombinant human soluble Fas receptors (PeproTech, Rocky Hill, N.J.); purchased PeproTech
T3 sequence (P25445 26-173 limits assumed): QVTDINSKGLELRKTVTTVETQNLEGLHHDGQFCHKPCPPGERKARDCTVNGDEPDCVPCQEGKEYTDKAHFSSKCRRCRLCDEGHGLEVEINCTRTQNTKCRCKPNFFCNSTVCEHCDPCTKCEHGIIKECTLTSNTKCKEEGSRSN
Description: The mixtures were incubated for 2 hours in 96-well plates pre-coated with recombinant hsFas (250 ng/ml). After washing unbound material, biotin was detected using HRP conjugated Streptavidin. […] The sFasL bound to Fas was detected using polyclonal anti-human FasL antibodies. […] Different molar ratios of the Fas-activating antibody CH-11 and mut-sFasL were added, and caspase 3/7 activity measured after 5 hours. […] Data represent the results from three separate experiments, each done in duplicate, and were analyzed by 2-way ANOVA with Sidak's post hoc analysis. […] Each dot represents individual data; lines represent means±SD. *=P<0.05; **=P<0.01, ***P<0.001.
Antibodies and Reagents. […] FLAG tagged mut-sFasL was detected using HRP anti-FLAG monoclonal antibody (Sigma-Aldrich, Cat #A85920). […]
WT-sFasL inhibition occurs prior to receptor binding. […] Recombinant human Fas at 250 ng/mL were coated and the binding of a fixed concentration of biotinylated WT-sFasL (70 ng/mL) were measured in the presence of serial 3-fold dilutions of either WT-sFasL or mut-sFasL. […] Serial dilutions of either WT-sFasL or mut-sFasL were incubated in wells coated with recombinant human Fas, 5 μg/mL, and after washing, detected sFasL bound to Fas using polyclonal anti-FasL antibodies. […]

Molecule: CC(NC(=O)C(NC(=O)OCc1ccccc1)C(C)C)C(=O)NC(CC(=O)O)C(=O)CF (stereo not drawn) [zVAD] (Cbz-Val-Ala-Asp-CH2F; configuration not given here)
- reversal of cell death and monolayer permeability induced by Jo2 (LA4 monolayer): reversed cell death and monolayer permeability induced by Jo2

Molecule: COC(=O)CC[C@H](NC(=O)[C@H](CC(=O)OC)NC(=O)OCc1ccccc1)C(=O)N[C@H](C(=O)N[C@@H](CC(=O)OC)C(=O)CF)C(C)C [zDEVD.fmk, reference compound]
- reversal of sFasL effect on monolayer permeability and ZO-1/occludin expression (HPAEpiC; HPAEpiC, pretreatment): reversed the effect of sFasL on HPAEpiC monolayer permeability and ZO-1/occludin expression

- binding result (biotinylated WT-sFasL): binds
B1: FLAG tagged mut-sFasL (ligand, human, UniProt P48023 103-281, looked up)
chain: QLFALQAALAALAASTSQMATASSLAKQIGHPSPPPEKKELRKVAHLTGKSNSRSMPLEWEDTYGIVLLSGVKYKKGGLVINETGLYFVYSKVYFRGQSCNNLPLSHKVYMRNSKYPQDLVMMEGKMMSYCTTGQMWARSSYLGAVFNLTSADHLYVNVSELSLVNFEESQTFFGLYKL
notes: range 103-281; C-terminal FLAG tag; also called mut-sFasL-FLAG; 8-mut sFasL-FLAG; not shown: FLAG tag fused in frame after amino acid 281

- FLAG signal (complexes with WT sFasL) (biotinylated WT sFasL [1]): dose-dependent increase in FLAG signal
B2: mut-sFasL-FLAG: 8-mut sFasL with FLAG tag at the 3′-end of the 281th amino acid coding sequence (protein)
chain: QLFALQAALAALAASTSQMATASSLAKQIGHPSPPPEKKELRKVAHLTGKSNSRSMPLEWEDTYGIVLLSGVKYKKGGLVINETGLYFVYSKVYFRGQSCNNLPLSHKVYMRNSKYPQDLVMMEGKMMSYCTTGQMWARSSYLGAVFNLTSADHLYVNVSELSLVNFEESQTFFGLYKL
modifications: left off: small tags and cut ends
- binding to streptavidin-coated plate without biotinylated WT sFasL (biotinylated WT sFasL [2]): did not bind to the streptavidin-coated plates
- binding to streptavidin-coated plate without biotinylated WT sFasL (biotinylated WT sFasL [2]; listed as FLAG-tagged mut-sFasL): did not bind to the plate, even at high concentrations

B3: WT-sFasL: wild type human soluble Fas ligand, amino acids 103 to 281, expressed in FreeStyle 293-F cells (protein, UniProt P48023 103-281, looked up, fragment)
chain: QLFHLQKELAELRESTSQMHTASSLEKQIGHPSPPPEKKELRKVAHLTGKSNSRSMPLEWEDTYGIVLLSGVKYKKGGLVINETGLYFVYSKVYFRGQSCNNLPLSHKVYMRNSKYPQDLVMMEGKMMSYCTTGQMWARSSYLGAVFNLTSADHLYVNVSELSLVNFEESQTFFGLYKL
- effect of increasing competitor concentration on binding of biotinylated WT-sFasL to Fas (recombinant human Fas): binding of biotinylated WT-sFasL to Fas decreased
- caspase 3 induction (HPAEpiC; HPAEpiC exposed to long form of sFasL): induced caspase 3

Reference: patent US20220002363A1, “COMPOSITIONS AND METHODS FOR TREATING PULMONARY DISEASE” (United States Government As Represented By The Department …, priority 2020, published 2022)
